To fix the notation:
B1: Mycobacterium tuberculosis DnaK T175A (catalytically dead mutant), full-length (natural protein)
chain: not shown
B2: Mycobacterium tuberculosis GrpE (natural protein)
chain: MTDGNQKPDGNSGEQVTVTDKRRIDPETGEVRHVPPGDMPGGTAAADAAHTEDKVAELTADLQRVQADFANYRKRALRDQQAAADRAKASVVSQLLGVLDDLERARKHGDLESGPLKSVADKLDSALTGLGLVAFGAEGEDFDPVLHEAVQHEGDGGQGSKPVIGTVMRQGYQLGEQVLRHALVGVVDTVVVDAAELESVDDGTAVADTAENDQADQGNSADTSGEQAESEPSGS

The data set “native gel or EMSA” concerns the molecule itself. The data set can be described thus: native gel or EMSA.
The target in data set [1] is B1. The experiment in a line: native gel or EMSA. A general note: A gel shift assay detects complexes by their altered migration in electrophoresis.

B1: the binding result in “native gel or EMSA” was “binds”.
Take B2: the binding result in data set [1] is on record as “binds”.

Source of the values: paper PMC9124243 (Cell chemical biology, 2021).
